From patent publication US20220406376A1 (MacroGenics, published 2022)

B1: TRIDENT-A (bispecific antibody, human IgG1, kappa, L234A L235A)
chain 1: DIQMTQSPSSLSASVGDRVTITCRPSQDISNYLNWYQQKPDKTVKLLIYYTSRLRSGVPSRFSGSGSGTDFTFTISSLQPEDIATYFCQQGDTLPYTFGQGTKLEIKGGGSGGGGQVQLVQSGAEVKKPGASVKVSCKASGYTFTSYWINWVKQAPGQGLEWIGNIYPSDSYTNYNQKFKDKATITADKSTSTAYMELSSLRSEDTAVYYCTRDYGSSYSFDYWGQGTTVTVSSASTKGEVAACEKEVAALEKEVAALEKEVAALEKGGGDKTHTCPPCPAPEAAGGPSVFLFPPKPKDTLMISRTPEVTCVVVDVSHEDPEVKFNWYVDGVEVHNAKTKPREEQYNSTYRVVSVLTVLHQDWLNGKEYKCKVSNKALPAPIEKTISKAKGQPREPQVYTLPPSREEMTKNQVSLWCLVKGFYPSDIAVEWESNGQPENNYKTTPPVLDSDGSFFLYSKLTVDKSRWQQGNVFSCSVMHEALHNHYTQKSLSLSPGK
chain 2: DIQMTQSPSSLSASVGDRVTITCRPSQDISNYLNWYQQKPDKTVKLLIYYTSRLRSGVPSRFSGSGSGTDFTFTISSLQPEDIATYFCQQGDTLPYTFGQGTKLEIKGGGSGGGGQVQLVQSGAEVKKPGASVKVSCKASGYTFTSYWINWVKQAPGQGLEWIGNIYPSDSYTNYNQKFKDKATITADKSTSTAYMELSSLRSEDTAVYYCTRDYGSSYSFDYWGQGTTVTVSSASTKGKVAACKEKVAALKEKVAALKEKVAALKE
heavy: QVQLVQSGAEVKKPGASVKVSCKASGYTFTNYGMNWVRQAPGQGLEWMGWINTNIGEPTYTEEFKGRVTMTRDTSISTAYMELSRLRSDDTAVYYCARDDGYGNRVSYWGQGTLVTVSSASTKGPSVFPLAPSSKSTSGGTAALGCLVKDYFPEPVTVSWNSGALTSGVHTFPAVLQSSGLYSLSSVVTVPSSSLGTQTYICNVNHKPSNTKVDKRVEPKSCDKTHTCPPCPAPEAAGGPSVFLFPPKPKDTLMISRTPEVTCVVVDVSHEDPEVKFNWYVDGVEVHNAKTKPREEQYNSTYRVVSVLTVLHQDWLNGKEYKCKVSNKALPAPIEKTISKAKGQPREPQVYTLPPSREEMTKNQVSLSCAVKGFYPSDIAVEWESNGQPENNYKTTPPVLDSDGSFFLVSKLTVDKSRWQQGNVFSCSVMHEALHNRYTQKSLSLSPGK
light: DIQMTQSPSSLSASVGDRVTITCKASQDISNYLSWFQQKPGKAPKTLIYRANRLQSGVPSRFSGSGSGTDFTLTISSLQPEDFATYYCLQHDEFPWTFGQGTKLEIKRTVAAPSVFIFPPSDEQLKSGTASVVCLLNNFYPREAKVQWKVDNALQSGNSQESVTEQDSKDSTYSLSSTLTLSKADYEKHKVYACEVTHQGLSSPVTKSFNRGEC
B2: TRIDENT-A2 (bispecific antibody, human IgG1, kappa, L234A L235A)
chain 1: DIQMTQSPSSLSASVGDRVTITCRPSQDISNYLNWYQQKPDKTVKLLIYYTSRLRSGVPSRFSGSGSGTDFTFTISSLQPEDIATYFCQQGDTLPYTFGQGTKLEIKGGGSGGGGQVQLVQSGAEVKKPGASVKVSCKASGYTFTSYWINWVKQAPGQGLEWIGNIYPSDSYTNYNQKFKDKATITADKSTSTAYMELSSLRSEDTAVYYCTRDYGSAYSMSTWGQGTTVTVSSASTKGEVAACEKEVAALEKEVAALEKEVAALEKGGGDKTHTCPPCPAPEAAGGPSVFLFPPKPKDTLMISRTPEVTCVVVDVSHEDPEVKFNWYVDGVEVHNAKTKPREEQYNSTYRVVSVLTVLHQDWLNGKEYKCKVSNKALPAPIEKTISKAKGQPREPQVYTLPPSREEMTKNQVSLWCLVKGFYPSDIAVEWESNGQPENNYKTTPPVLDSDGSFFLYSKLTVDKSRWQQGNVFSCSVMHEALHNHYTQKSLSLSPGK
chain 2: DIQMTQSPSSLSASVGDRVTITCRPSQDISNYLNWYQQKPDKTVKLLIYYTSRLRSGVPSRFSGSGSGTDFTFTISSLQPEDIATYFCQQGDTLPYTFGQGTKLEIKGGGSGGGGQVQLVQSGAEVKKPGASVKVSCKASGYTFTSYWINWVKQAPGQGLEWIGNIYPSDSYTNYNQKFKDKATITADKSTSTAYMELSSLRSEDTAVYYCTRDYGSAYSMSTWGQGTTVTVSSASTKGKVAACKEKVAALKEKVAALKEKVAALKE
heavy: QVQLVQSGAEVKKPGASVKVSCKASGYTFTNYGMNWVRQAPGQGLEWMGWINTNIGEPTYTEEFKGRVTMTRDTSISTAYMELSRLRSDDTAVYYCARDDGYGNRVSYWGQGTLVTVSSASTKGPSVFPLAPSSKSTSGGTAALGCLVKDYFPEPVTVSWNSGALTSGVHTFPAVLQSSGLYSLSSVVTVPSSSLGTQTYICNVNHKPSNTKVDKRVEPKSCDKTHTCPPCPAPEAAGGPSVFLFPPKPKDTLMISRTPEVTCVVVDVSHEDPEVKFNWYVDGVEVHNAKTKPREEQYNSTYRVVSVLTVLHQDWLNGKEYKCKVSNKALPAPIEKTISKAKGQPREPQVYTLPPSREEMTKNQVSLSCAVKGFYPSDIAVEWESNGQPENNYKTTPPVLDSDGSFFLVSKLTVDKSRWQQGNVFSCSVMHEALHNRYTQKSLSLSPGK
light: DIQMTQSPSSLSASVGDRVTITCKASQDISNYLSWFQQKPGKAPKTLIYRANRLQSGVPSRFSGSGSGTDFTLTISSLQPEDFATYYCLQHDEFPWTFGQGTKLEIKRTVAAPSVFIFPPSDEQLKSGTASVVCLLNNFYPREAKVQWKVDNALQSGNSQESVTEQDSKDSTYSLSSTLTLSKADYEKHKVYACEVTHQGLSSPVTKSFNRGEC
B3: TRIDENT-A4 (bispecific antibody, human IgG1, kappa, L234A L235A)
chain 1: DIQMTQSPSSLSASVGDRVTITCRPSQDISNYLNWYQQKPDKTVKLLIYYTSRLRSGVPSRFSGSGSGTDFTFTISSLQPEDIATYFCQQGDTLPYTFGQGTKLEIKGGGSGGGGQVQLVQSGAEVKKPGASVKVSCKASGYTFTSYWINWVKQAPGQGLEWIGNIYPSDSYTNYNQKFKDKATITADKSTSTAYMELSSLRSEDTAVYYCTRDYGSSYSYNVWGQGTTVTVSSASTKGEVAACEKEVAALEKEVAALEKEVAALEKGGGDKTHTCPPCPAPEAAGGPSVFLFPPKPKDTLMISRTPEVTCVVVDVSHEDPEVKFNWYVDGVEVHNAKTKPREEQYNSTYRVVSVLTVLHQDWLNGKEYKCKVSNKALPAPIEKTISKAKGQPREPQVYTLPPSREEMTKNQVSLWCLVKGFYPSDIAVEWESNGQPENNYKTTPPVLDSDGSFFLYSKLTVDKSRWQQGNVFSCSVMHEALHNHYTQKSLSLSPGK
chain 2: DIQMTQSPSSLSASVGDRVTITCRPSQDISNYLNWYQQKPDKTVKLLIYYTSRLRSGVPSRFSGSGSGTDFTFTISSLQPEDIATYFCQQGDTLPYTFGQGTKLEIKGGGSGGGGQVQLVQSGAEVKKPGASVKVSCKASGYTFTSYWINWVKQAPGQGLEWIGNIYPSDSYTNYNQKFKDKATITADKSTSTAYMELSSLRSEDTAVYYCTRDYGSSYSYNVWGQGTTVTVSSASTKGKVAACKEKVAALKEKVAALKEKVAALKE
heavy: QVQLVQSGAEVKKPGASVKVSCKASGYTFTNYGMNWVRQAPGQGLEWMGWINTNIGEPTYTEEFKGRVTMTRDTSISTAYMELSRLRSDDTAVYYCARDDGYGNRVSYWGQGTLVTVSSASTKGPSVFPLAPSSKSTSGGTAALGCLVKDYFPEPVTVSWNSGALTSGVHTFPAVLQSSGLYSLSSVVTVPSSSLGTQTYICNVNHKPSNTKVDKRVEPKSCDKTHTCPPCPAPEAAGGPSVFLFPPKPKDTLMISRTPEVTCVVVDVSHEDPEVKFNWYVDGVEVHNAKTKPREEQYNSTYRVVSVLTVLHQDWLNGKEYKCKVSNKALPAPIEKTISKAKGQPREPQVYTLPPSREEMTKNQVSLSCAVKGFYPSDIAVEWESNGQPENNYKTTPPVLDSDGSFFLVSKLTVDKSRWQQGNVFSCSVMHEALHNRYTQKSLSLSPGK
light: DIQMTQSPSSLSASVGDRVTITCKASQDISNYLSWFQQKPGKAPKTLIYRANRLQSGVPSRFSGSGSGTDFTLTISSLQPEDFATYYCLQHDEFPWTFGQGTKLEIKRTVAAPSVFIFPPSDEQLKSGTASVVCLLNNFYPREAKVQWKVDNALQSGNSQESVTEQDSKDSTYSLSSTLTLSKADYEKHKVYACEVTHQGLSSPVTKSFNRGEC

How the values were obtained:
[1] = molecular target: T1, HER2/neu on the surface of target cells (N87, JIMT-1, MCF-7, MDA-MB231) (UniProt P04626 23-1255, limits assumed); assay: flow cytometry on N87 cells, anti-hFc APC MFI
T1 construct: whole, on cells

[2] = molecular target: T2, CD137 on the surface of cells (activated human T cells; engineered CHO cells) (human, UniProt Q07011 24-255); assay: flow cytometry on activated pan T cells (donor D46433, CD8 PE), anti-hFc APC MFI
T2 construct: whole, on cells; also called human CD137; cell surface expressed CD137

[3] = molecular target: T1, HER2/neu on the surface of target cells …; assay: flow cytometry on JIMT-1 cells, anti-hFc APC MFI
[4] = molecular target: T1, HER2/neu on the surface of target cells …; assay: flow cytometry on MCF-7 cells, anti-hFc APC MFI

T2 sequence (Q07011 24-255, change not shown): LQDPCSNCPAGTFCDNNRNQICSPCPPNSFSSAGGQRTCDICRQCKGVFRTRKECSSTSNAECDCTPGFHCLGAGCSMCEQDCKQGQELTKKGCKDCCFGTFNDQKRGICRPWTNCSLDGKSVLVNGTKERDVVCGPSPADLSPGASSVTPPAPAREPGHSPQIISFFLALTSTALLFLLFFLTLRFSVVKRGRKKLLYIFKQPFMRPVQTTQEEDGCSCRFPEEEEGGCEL

| Binder | EC50 (read off the curve) [1] | EC50 (read off the curve) [2] | EC50 (read off the curve) [3] | EC50 (read off the curve) [4] |
| --- | --- | --- | --- | --- |
| B1 | ~1 nM | ~0.06 nM | ~0.9 nM | ~0.2 nM |
| B2 | ~1 nM | ~0.04 nM | ~0.7 nM | ~0.2 nM |
| B3 | ~1 nM | ~0.05 nM | ~0.7 nM | ~0.2 nM |
